In patent US8415106B2, “Cell-based screen for agents useful for reducing neuronal demyelination or promoting neuronal remyelination” (Myelin Repair Foundation, Inc., priority 2005, dated 2013):
Values joined by “and” are separate entries in the source; they are usually repeats but may differ in a detail not shown here. Equal values may be shown once.

Experiments:
[1] = system: ER stress markers (BIP, CHOP, p-eIF-2α); assay: ER stress markers in the corpus callosum during remyelination (real time PCR, Western blot); format: in vivo, mice
Protocol: Repression of remyelination by IFN-γ is associated with ER stress. […] To determine whether IFN-γ interferes with endoplasmic reticulum (ER) function in remyelinating oligodendrocytes, the expression of ER stress markers was monitored in the corpus callosum of mice expressing IFN-γ. The study was performed using the transgenic mice described in Example 1.
The level of mRNA encoding ER stress associated genes binding immunoglobulin protein/78 KDa glucose regulated protein (BIP/GRP78) and the CAATT enhancer-binding protein homologous protein/growth and DNA damage protein 153 (CHOP/GADD153), was determined using real time PCR, as described in Example 1 in the corpus callosum of the cuprizone treated mice of Example 1. The probes, sense and antisense primers that were used were: […]
The level of phosphorylated eIF-2α, which inhibits nucleotide exchange on the eIF-2 complex and attenuates most protein synthesis, was analyzed by Western blot, and the expression was colocalized by immunostaining CC1 antibodies as described above. Western blot analysis was performed as follows. The corpus callosum from 3 mice was rinsed in ice cold phosphate-buffered saline (PBS) and pooled, and immediately homogenized in 5 volumes of Triton X-100 buffer (20 mM HEPES pH 7.5, 150 mM NaCl, 1% Triton X-100, 10% glycerol, 1 mM EDTA, 10 mM tetrasodium pyrophosphate, 100 mM NaF, 17.5 mM β-glycerophosphate, 10 mM phenylmethylsulfonyl fluoride, 15 μg/ml aprotonin, and 6 μg/ml pepstatin A) using a motorized homogenizer. After incubation on ice for 15 min, the extracts were cleared by centrifugation at 14,000 rpm twice for 30 min each. The protein content of each extract was determined by protein assay (Bio-Rad). The extracts (40 μg) were separated by sodium dodecyl sulfate-polyacrylamide gel electrophoresis and transferred to nitrocellulose. […] The following primary antibodies were used: anti-eIF-2α (1:500; Santa Cruz, Santa Cruz, Calif.), anti-p-eIF-2α (1:1000, Cell signaling Technology), anti-CHOP (1:500; Santa Cruz) and anti-actin (1:1000; Sigma, St Louis, Mo.).

[2] = system: rat oligodendrocytes; assay: IFN-γ-induced apoptosis in cultured rat oligodendrocytes (TUNEL/CNP, caspase-3 activity); format: cell-based
Protocol: To test whether apoptosis of oligodendrocytes that is induced by INF-γ affects ER stress, the effect on the morphology, the degree of apoptosis and the expression of ER markers was studied in a culture of oligodendrocyte precursor cells (OPC). Oligodendrocyte progenitors were cultured from neonatal rat brains (Baerwald, et al. (1998) J. Neurosci. Res. 52: 230-239). A mixed glial culture was grown in flasks in medium containing 10% fetal bovine serum (FBS), and when the astrocyte layer became confluent (10-14 days), oligodendrocyte progenitors were separated from astrocytes and microglia using an orbital shaker. Cells, greater than 95% of which were A2B5 positive, GFAP negative and CD11b negative, were cultured in 0.5% FBS containing medium, which also contained PDGF (10 ng/ml) and FGF (5 ng/ml) (both from R&D Systems, Minneapolis, Minn.). Then cells were switched to 0.5% FBS medium without PDGF and FGF for differentiation. […]
The level of apoptosis of the OPC cells was determined by double staining CNP (1:200; Sternberger Monoclonals, Lutherville, Md.) and TUNEL using the ApopTag Kit (Serologicals Corp., Norcross, Calif.) and following the manufacturer's instructions. Apoptosis was also evaluated by measuring the activity of caspase-3 in oligodendrocyte lysates using the Fluorimetric Caspase 3 Assay Kit (Sigma, St. Louis, Mo.), according to the manufacturer's instructions.

[3] = system: mice with EAE; assay: MOG 35-55-induced EAE, CNS delivery of INF-γ at EAE onset (PERK+/+ double or PERK+/− triple mice); format: in vivo; settings: for Mean of maximum clinical score (mean ± S.D.): 0-5 point scale; for Mean of maximum clinical score (mean ± S.D.) / Day of onset of disease (PID: postimmunization day): n = 25
[4] = system: myelin basic protein (MBP); assay: Hippocampal organotypic cultures (HOC), in vitro model of myelination, MBP Western blot; format: cell-based; settings: 100 U/ml IFN-γ, 7 days, HOCs
Protocol: HOCs, were prepared and maintained as described previously (Kunkler and Kraig (1997) J Cereb Blood Flow Metab. 17:26-43), and were maintained in vitro for 7 days before use. SAL at various concentrations was combined with 100 U/ml IFN-γ and added to the HOC cultures for 7 days. […] After 7 days of 100 U/ml IFN-γ exposure, the levels of MBP decreased approximately 80% in the HOCs (FIG. 29).

[5] = DOX− compared to control DOX+ mice

B1: IFN-γ: pleotropic cytokine secreted by activated T lymphocytes and natural killer cells; recombinant rat IFN-γ added to cultures or transgenically expressed in mouse CNS (protein, UniProt P01581 23-156, looked up)
Interferon gamma: QGTLIESLESLKNYFNSSSMDAMEGKSLLLDIWRNWQKDGNTKILESQIISFYLRLFEVLKDNQAISNNISVIESHLITNFFSNSKAKKDAFMSIAKFEVNNPQIQHKAVNELIRVIHQLSPESSLRKRKRSRC
With B1 the “level of mRNA for BIP” value [1, 5] was “approximately 2 fold”, the “level of mRNA for CHOP” value [1, 5] was “approximately 2 fold” and the “level of phosphorylated eIF-2α (Western blot)” value ([1]; DOX− double transgenic mice) was “approximately 1.8 fold”. For the same molecule, the “level of the CHOP protein (Western blot)” value ([1]; DOX− double transgenic mice) was “approximately 1.7 fold”, the “caspase-3 activity in the cell lysates” value ([2]; 70 U/ml IFN-γ) was “markedly increased” and the “TUNEL and CNP double labeling (apoptosis)” value ([2]; 70 U/ml IFN-γ for 48 h, oligodendrocytes differentiated 5 days) was “induced apoptosis in a significant number of oligodendrocytes”. The Incidence of death ([3]; DOX− double mice (PERK+/+)) was 0/25, the “Mean of maximum clinical score (mean ± S.D.)” value ([3]; DOX− double mice (PERK+/+)) was 1.63 ± 0.51 and the “Day of onset of disease (PID: postimmunization day)” value ([3]; DOX− double mice (PERK+/+)) was 14.7 ± 1.4. The “Incidence of hind limb paralysis” value ([3]; DOX− double mice (PERK+/+), listed as INF-γ) was 2 of 25 and 2/25, the “MBP mRNA level in the spinal cord versus age-matched naive mice” value ([3]; DOX− double mice, PID17, DOX+ double mice decreased by 30%) was “not significantly decreased” and the Incidence of death ([3]; DOX− triple mice (PERK+/−)) was 3/25. For the same molecule, the “Incidence of hind limb paralysis” value ([3]; DOX− triple mice (PERK+/−)) was 18/25, the “Mean of maximum clinical score (mean ± S.D.)” value ([3]; DOX− triple mice (PERK+/−)) was 2.71 ± 1.11 and the “Day of onset of disease (PID: postimmunization day)” value ([3]; DOX− triple mice (PERK+/−)) was 13.6 ± 0.8. For the same molecule, the “decrease of MBP levels” value [4] was “approximately 80%”.
